From US20220056125A1 (CEPHALON, published 2022)
Residue numbers refer to the chain shown, from its start. “And” between values parts separate entries of the source, which are not always exact repeats. Equal entries are not always repeated.

T1: human PAR-2 (human, UniProt P55085 26-397)
T1 sequence: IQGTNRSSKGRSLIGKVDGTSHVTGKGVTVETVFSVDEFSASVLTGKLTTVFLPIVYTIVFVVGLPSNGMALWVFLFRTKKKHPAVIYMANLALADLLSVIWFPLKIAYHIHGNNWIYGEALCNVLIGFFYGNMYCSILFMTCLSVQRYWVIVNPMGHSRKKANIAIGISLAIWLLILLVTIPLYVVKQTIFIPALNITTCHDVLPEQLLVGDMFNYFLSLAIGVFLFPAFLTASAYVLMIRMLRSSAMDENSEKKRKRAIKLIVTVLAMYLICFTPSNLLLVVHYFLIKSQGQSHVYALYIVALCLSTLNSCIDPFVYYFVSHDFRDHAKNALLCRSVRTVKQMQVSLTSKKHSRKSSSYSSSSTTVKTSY

B1: P24E915 (antibody, human IgG4 S228P, kappa, V domains shown)
VH: QVQLVQSGAEVKKPGSSVKVSCKASGFSLSSYAISWVRQAPGQGLEWMGVIWGNGNTYYAQKFQGRVTITADESTSTAYMELSSLRSEDTAVYYCARWKGYKDYPFDYWGQGTLVTVSS
VL: EIVLTQSPATLSLSPGERATLSCKASQNVYKWLDWYQQKPGQAPRLLIYNAYSLATGIPARFSGSGSGRDFTLTISSLEPEDFAVYYCQQHNSGWTFGGGTKVEIKR
B2: P24E933 (antibody, human IgG4 S228P, kappa, V domains shown)
VH: B1 VH
VL: B1 VL with K24R, L54R, N92G
B3: P24E953 (antibody, human IgG4 S228P, kappa, V domains shown)
VH: B1 VH with G55Q, T57V
VL: B1 VL with K24R, N50D, L54R, N92G
B4: P24E978 (antibody, human IgG4 S228P, kappa, V domains shown)
VH: B1 VH with G55Q, T57V
VL: B1 VL with K24R, N50D, L54R, N92H, S93H
B5: P24E934 (antibody, human IgG4 S228P, kappa, V domains shown)
VH: B1 VH with T57V, Y104H
VL: B1 VL with K24R, L54R, N92H
B6: P24E918 (antibody, human IgG4 S228P, kappa, V domains shown)
VH: B1 VH with K99R, Y101F
VL: B1 VL with K24R, V29I
B7: P24E186 (antibody, human IgG4 S228P, kappa, V domains shown)
VH: B1 VH with S30N, A33G, I34V, S35I, A60N, K99R, Y101W
VL: B1 VL with V29I, W32Y, A51T, Y52N, A55H, Q89L
B8: P24E61 (antibody, human IgG4 S228P, kappa, V domains shown)
VH: B1 VH with S30N, A33G, I34V, S35I, A60N, K99R
VL: B1 VL with V29I, W32F, A51T, Y52N, A55H, Q89L
B9: P24E920 (antibody, human IgG4 S228P, kappa, V domains shown)
VH: B1 VH with K99R, Y101F
VL: B1 VL with K24R, L54R
B10: P24E973 (antibody, human IgG4 S228P, kappa, V domains shown)
VH: B1 VH with T57V
VL: B1 VL with K24R, L54R, N92G, S93H
B11: P24E923 (antibody, human IgG4 S228P, kappa, V domains shown)
VH: B1 VH with K99R, Y101W
VL: B1 VL
B12: P24E936 (antibody, human IgG4 S228P, kappa, V domains shown)
VH: B1 VH with T57V, Y104H
VL: B1 VL with K24R, L54R, N92G, S93H
B13: P24E233 (antibody, human IgG4 S228P, kappa, V domains shown)
VH: B1 VH with S30N, A33G, I34V, S35I, A60Y, K99R
VL: B1 VL with V29I, W32Y, A51T, Y52N, A55H, Q89L
B14: P24E922 (antibody, human IgG4 S228P, kappa, V domains shown)
VH: B1 VH with K99R, Y101W
VL: B1 VL with K24R, V29I
B15: P24E9 (antibody, human IgG4 S228P, kappa, V domains shown)
VH: B1 VH with A33G, I34V, S35I, A60N, K99R
VL: B1 VL with V29I, W32Y, A51T, Y52N, A55H, Q89L
B16: P24E40 (antibody, human IgG4 S228P, kappa, V domains shown)
VH: B1 VH with S30N, A33G, I34V, S35I, A60N, K99R
VL: B1 VL with V29I, W32Y, A51T, Y52N, Q89L
B17: P24E932 (antibody, human IgG4 S228P, kappa, V domains shown)
VH: B1 VH with T57V
VL: B1 VL with K24R, V29I
B18: P24E219 (antibody, human IgG4 S228P, kappa, V domains shown)
VH: B1 VH with S30N, A33G, I34G, S35I, A60N, K99R
VL: B1 VL with V29I, W32Y, A51T, Y52N, A55H, Q89L
B19: P24E280 (antibody, human IgG4 S228P, kappa, V domains shown)
VH: B1 VH with A33G, I34V, S35I, K99R
VL: B1 VL with W32Y, A51T, Y52N, Q89L
B20: P24E216 (antibody, human IgG4 S228P, kappa, V domains shown)
VH: B1 VH with S30N, S31Y, A33G, I34V, S35I, A60N, K99R
VL: B1 VL with V29I, W32Y, A51T, Y52N, A55H, Q89L
B21: P24E971 (antibody, human IgG4 S228P, kappa, V domains shown)
VH: B1 VH with T57V
VL: B1 VL with K24R, L54R, N92H
B22: P24E919 (antibody, human IgG4 S228P, kappa, V domains shown)
VH: B1 VH with K99R, Y101F
VL: B1 VL
B23: P24E41 (antibody, human IgG4 S228P, kappa, V domains shown)
VH: B1 VH with S30N, A33G, I34V, S35I, A60N, K99R
VL: B1 VL with V29I, W32Y, N50D, Y52S, S53N, L54R, Q89L
B24: P24E930 (antibody, human IgG4 S228P, kappa, V domains shown)
VH: B1 VH with T57V
VL: B1 VL with K24R, L54R, N92G
B25: P24E935 (antibody, human IgG4 S228P, kappa, V domains shown)
VH: B1 VH with T57V, Y104H
VL: B1 VL with K24R, L54R, N92H, S93H
B26: P24E924 (antibody, human IgG4 S228P, kappa, V domains shown)
VH: B1 VH with K99R, Y101W
VL: B1 VL with K24R, L54R
B27: P24E278 (antibody, human IgG4 S228P, kappa, V domains shown)
VH: B1 VH with A33G, I34V, S35I, K99R
VL: B1 VL with V29I, W32Y, A51T, Y52N, Q89L
B28: P24E917 (antibody, human IgG4 S228P, kappa, V domains shown)
VH: B1 VH
VL: B1 VL with N92G
B29: P24E282 (antibody, human IgG4 S228P, kappa, V domains shown)
VH: B1 VH with A33G, I34V, S35I, K99R
VL: B1 VL with V29I, W32Y, A51T, Y52N, L54R, Q89L
B30: P24E921 (antibody, human IgG4 S228P, kappa, V domains shown)
VH: B1 VH with K99R, Y101F
VL: B1 VL with N92G
B31: P24E977 (antibody, human IgG4 S228P, kappa, V domains shown)
VH: B1 VH with G55Q, T57V
VL: B1 VL with K24R, N50D, L54R, N92H
B32: P24E931 (antibody, human IgG4 S228P, kappa, V domains shown)
VH: B1 VH with T57V
VL: B1 VL with N92G
B33: P24E972 (antibody, human IgG4 S228P, kappa, V domains shown)
VH: B1 VH with T57V
VL: B1 VL with K24R, L54R, N92H, S93H
B34: P24E916 (antibody, human IgG4 S228P, kappa, V domains shown)
VH: B1 VH
VL: B1 VL with K24R, L54R
B35: P24E60 (antibody, human IgG4 S228P, kappa, V domains shown)
VH: B1 VH with S30N, A33G, I34V, S35I, A60N, K99R
VL: B1 VL with V29I, A51T, Y52N, A55H, Q89L
B36: P24E22 (antibody, human IgG4 S228P, kappa, V domains shown)
VH: B1 VH with S30N, A33G, I34V, S35I, K99R
VL: B1 VL with V29I, W32Y, A51T, Y52N, A55H, Q89L
B37: P24E281 (antibody, human IgG4 S228P, kappa, V domains shown)
VH: B1 VH with A33G, I34V, S35I, K99R
VL: B1 VL with V29I, W32Y, Y52N, Q89L
B38: P24E975 (antibody, human IgG4 S228P, kappa, V domains shown)
VH: B1 VH with G55Q, T57V
VL: B1 VL with K24R, L54R, N92H, S93H
B39: P24E951 (antibody, human IgG4 S228P, kappa, V domains shown)
VH: B1 VH with G55Q, T57V
VL: B1 VL with K24R, L54R, N92G
B40: P24E279 (antibody, human IgG4 S228P, kappa, V domains shown)
VH: B1 VH with A33G, I34V, S35I, K99R
VL: B1 VL with K24R, V29I, W32Y, A51T, Y52N, Q89L
B41: P24E232 (antibody, human IgG4 S228P, kappa, V domains shown)
VH: B1 VH with S30N, A33G, I34V, S35I, A60G, K99R
VL: B1 VL with V29I, W32Y, A51T, Y52N, A55H, Q89L

Each binder was assayed against T1, human PAR-2 (assay: cell-based or functional assay).

Row | PAR-2 β-arrestin cell based assay IC50, 2 µM SLIGKV | PAR-2 β-arrestin cell based assay IC50, 1 µM SLIGKV [nM] | PAR-2 β-arrestin cell based assay IC50 (SLIGKV mark missing) [nM] | Binder
1 | 1.16 nM | – | – | B1
2 | 1.4 nM | – | – | B2
3 | 3.64 nM and 1.84 nM | – | – | B3
4 | 0.94 nM | – | – | B4
5 | 1.5 nM | – | – | B5
6 | 1.18 nM | – | – | B6
7 | – | 3.25 | – | B7
8 | – | 2.56 | – | B8
9 | 1.32 nM | – | – | B9
10 | 2.35 nM | – | – | B10
11 | 0.99 nM | – | – | B11
12 | 1.8 nM | – | – | B12
13 | – | 1.77 | – | B13
14 | 1.01 nM | – | – | B14
15 | – | 11.3 | – | B15
16 | – | 2.47 | – | B16
17 | 1.4 nM | – | – | B17
18 | – | 1.33 | – | B18
19 | 1.9 nM | – | – | B19
20 | – | 1.95 | – | B20
21 | 2.4 nM | – | – | B21

Row | PAR-2 β-arrestin cell based assay IC50, 2 µM SLIGKV | PAR-2 β-arrestin cell based assay IC50, 1 µM SLIGKV [nM] | PAR-2 β-arrestin cell based assay IC50 (SLIGKV mark missing) [nM] | Binder
22 | 1.44 nM | – | – | B22
23 | – | 26.9 | – | B23
24 | 1.4 nM | – | 1.7 | B24
25 | 1.5 nM | – | – | B25
26 | 0.79 nM | – | – | B26
27 | 2.5 nM | – | – | B27
28 | 0.93 nM | – | – | B28
29 | 2 nM | – | – | B29
30 | 1.9 nM | – | – | B30
31 | 1.73 nM | – | – | B31
32 | 2 nM | – | – | B32
33 | 1.52 nM | – | – | B33
34 | 1.1 nM | – | – | B34
35 | – | 2.03 | – | B35
36 | – | 2.5 | – | B36
37 | 2.6 nM | – | – | B37
38 | 0.75 nM | – | – | B38
39 | 2.55 nM and 1.17 nM | – | – | B39
40 | 2.8 nM | – | – | B40
41 | – | 1.99 | – | B41
